Data set [1] has as its target T1, hGal1-induced hemagglutination of red blood cells (Homo sapiens, UniProt P09382).
T1 construct: 42; made in house; host or cells: E. coli strain M-15
The data set can be described thus: Hemagglutination inhibition assay, native hGal1. The class given is cell-based. The note with it: native Gal1 5 μM. On the procedure: Hemagglutination Inhibition Assay
Hemagglutination assay was adopted to assess the capacity of SEQ ID NO.: 4 in inhibiting the lectin cross-linking aggregation of red blood cells (RBC), as previously described. Briefly, using a 96-well microplates appropriate amounts of 5 μM hGal1 were blended with 50 μL of aptamer in an increasing concentrations manner (0-40 μM) in PBS 1× buffer (pH 7.4). Following, 50 μL of 3% purified type B+ RBC in PBS. After 2 h of room temperature incubation, the plate was photographed and the hemagglutination area was estimated by area calculator Sketchandcalc™ and the results were expressed as relative agglutination.

Data set [2] addresses T2, native human galectin-1 (hGal1) (Homo sapiens, UniProt P09382).
T2 construct: 42; made in house; host or cells: E. coli strain M-15
The data set can be described thus: Thermofluor thermal shift assay (TSA), native galectin-1. The class given is binding. The note with it: 5 μM protein. On the procedure: In an attempt to screen among the selected aptamers that better interact with hGal1, differential scanning fluorimetry (Termofluor) was used to characterize their binding to its target. Among all the selected aptamers, SEQ ID NO.: 4 seemed to have a more intense effect on hGal1 thermoshift and so was chosen for further analysis. The selected aptamer had its interaction evaluated with native and alkylated galectin-1. […] The respective thermal displacements were evaluated as a function of an increasing concentration of SEQ ID NO.: 4 (FIG. 1).
Thermofluor experiments were performed on an Mx3005 RT-PCR (Agilent Technologies) using the SYPRO® Orange dye (492/610 nm) (Invitrogen) as fluorescent probe. The purified (native and alkylated) protein samples were incubated for 30 min with increasing concentration of the molecules of interest, centrifuged, and submitted to the thermal denaturation assay, totalizing four distinct experiments. In a 96-well plate (Agilent Technologies) 20 μl of the reaction containing 5 μM of each protein in buffer PBS 1× and 5× SYPRO® Orange were heated from 25° C. to 95° C. at a rate of 1° C./min. The experimental result was processed as in the protocol previously described and the melting temperature was obtained using GraphPad Prism software (www.graphpad.com).

Data set [3] has as its system MCF-7 human breast adenocarcinoma cell line. Briefly: SRB cell proliferation (cytotoxicity) assay, MCF-7. The note with it: MCF-7. An excerpt: (§1) The XLSTAT software was used to determine the IC50, TGI and LC50 values using the four-parameter logistic curve equation.
The subject of data set [4] is SK-BR-3 human breast adenocarcinoma. The data set can be described thus: SRB cell proliferation (cytotoxicity) assay, SK-BR-3. The note with it: SK-BR-3.
Excerpt: as §1

Data set [5] relates to DU-145 human prostate carcinoma cell line. Briefly: SRB cell proliferation (cytotoxicity) assay, DU-145. The conditions noted are these: DU-145.
Excerpt: as §1

Data set [6] relates to OVCAR-3 human ovarian adenocarcinoma cell line. Briefly: SRB cell proliferation (cytotoxicity) assay, OVCAR-3. The note with it: OVCAR-3.
Excerpt: as §1

The next data set deals with OVCAR-3 cell line. The data set can be described thus: Synergism test with cisplatin, OVCAR-3. The note with it: cisplatin 3 μM.
Data set [7] relates to NHF human foreskin skin fibroblasts. Briefly: SRB cell proliferation (cytotoxicity) assay, NHF. The conditions noted are these: NHF.
Excerpt: as §1

The test system of data set [8] is A-375 human malignant melanoma. The data set can be described thus: SRB cell proliferation (cytotoxicity) assay, A-375. The note with it: A-375.
Excerpt: as §1

For data set [9], the system named is HCT 116 human colorectal carcinoma. The data set can be described thus: SRB cell proliferation (cytotoxicity) assay, HCT 116. The conditions noted are these: HCT 116.
Excerpt: as §1

Data set [10] relates to HT-29 human colorectal adenocarcinoma. The data set can be described thus: SRB cell proliferation (cytotoxicity) assay, HT-29. The note with it: HT-29.
Excerpt: as §1

Where [11] appears, read: read-out: IC50: Concentration to inhibit 50% of cell growth.
[12] abbreviates: read-out: LC50: Concentration for 50% cell death.

T1 sequence (P09382 2-135): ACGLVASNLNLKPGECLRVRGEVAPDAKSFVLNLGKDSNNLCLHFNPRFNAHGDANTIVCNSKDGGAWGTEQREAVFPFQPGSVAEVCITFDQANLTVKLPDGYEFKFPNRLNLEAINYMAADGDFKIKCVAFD
T2 sequence (P09382 2-135): as above
Excerpt for OVCAR-3 cell line: For the analysis of cell proliferation, the non-clonogenic method of sulforodamine B (SRB) was used, a protein dye that binds to the basic amino acid residues of cell proteins that were viable at the time of the fixation process. Therefore, the greater the amount of SRB bound per compartment, the less the antiproliferative activity of the item under study.

For `OC[C@H]1O[C@@H](O[C@H]2[C@H](O)[C@@H](O)C(O)O[C@@H]2CO)[C@H](O)[C@@H](O)[C@H]1O` (stereo partly shown) [Lactose, reference compound], the “inhibitory effect on galectin-induced hemagglutination” value in data set [1] is given as “inhibited hemagglutinating activity”.

B1: AGCTGACACAGCAGGTTGGTGCGCCCAATACAGGCGCAGTATCTGTCCGTGGGCCGGGTAAAAGTTACGGACCGAGTCGAGCAATCTCGAAAT (nucleic acid)
DNA: AGCTGACACAGCAGGTTGGTGCGCCCAATACAGGCGCAGTATCTGTCCGTGGGCCGGGTAAAAGTTACGGACCGAGTCGAGCAATCTCGAAAT
modifications: chemistry not given here
B1: the “variation of denaturation temperature (Tm) of native hGal1” value in [2] was “greater variation”. Further, the “TGI: Concentration for total inhibition of cell growth” value stood at 48.434 µM in data set [3]; 37.529 µM in [4]; 42.423 µM in [5]; 37.711 µM in [6]; 53.452 µM in data set [7]; 36.326 µM in data set [8]. Also, the “TGI: Concentration for total inhibition of cell growth” value in data set [9] was found to be 41.730 µM; in data set [10], 30.010 µM. For the same molecule, the IC50 stood at 17.8 µM in data set [3] (setting [11]); 24.3 µM in [4] (setting [11]); 23.4 µM in data set [5] (setting [11]); 11.1 µM in data set [6] (setting [11]); 33.7 µM in data set [7] (setting [11]); 26.3 µM in data set [8] (setting [11]). Further, the figures for the IC50 in data set [9] (setting [11]) and in data set [10] (setting [11]) were 16 µM and 14.6 µM, respectively. The CC50 in data set [3] (setting [12]) is 84.1 µM; in data set [4] (setting [12]), 60.2 µM; in data set [5] (setting [12]) it was 83.5 µM; in data set [6] (setting [12]) it was 87.8 µM; in data set [7] (setting [12]) it was 93.6 µM; in [8] (setting [12]), 51.5 µM. Further, the CC50 stood at 96.3 µM in [9] (setting [12]) and 60.3 µM in data set [10] (setting [12]). Moreover, the “effect on the profile of antiproliferative activity in association with cisplatin” value in the data set on OVCAR-3 cell line was “enhances”. For the same molecule, the “inhibitory effect on galectin-induced hemagglutination” value in data set [1] is “better effect”.

These data come from patent publication US11649460B2, “DNA aptamers, method for inhibiting human galectin-1 and method of treating a mammal in need thereof” (priority 2020, dated 2023).
